Consider 9 molecules from US20050113284A1 (published 2005).

B9: prey clone No. 3-309: C-terminal 91 amino acids of the human c-Met β chain fused to GAL4-AD (other, not shown: large carriers)
chain: RRLLQPEYCPDPLYEVMLKCWHPKAEMRPSFSELVSRISAIFSTFIGEHYVHVNATYVNVKCVAPYPSLLSSEDNADDEVDTRPASFWETS
notes: also called human HGF receptor c-Met prey vector

Test [1] deals with B9. Kind of test: yeast two-hybrid. As for the experimental part:
(§1) Yeast AH109 strain was cotransfected with each of the bait vectors and the prey vector carrying human HGF receptor c-Met (DNA corresponding to the C-terminal 91 amino acids of the human c-Met; clone No. 3-309) identified in Example 1.
(§2) The binding ability of MERMUC bait protein derived from each of the bait vectors to the HGF receptor c-Met β chain was analyzed by the yeast two-hybrid system described above.

Test [2] concerns the target T1, human MERMUC bait-2 protein (C-terminal 123 amino acids of human MERMUC fused to GAL4-DB) (yeast; human).
T1 construct: also called MERMUC bait protein; fusion protein A
Put plainly: yeast two-hybrid (growth on SD/-Leu,-Trp,-His and SD/-Leu,-Trp,-Ade). As for the experimental part:
The binding activity between the c-Met prey proteins derived from the 7 DNA fragments and the MERMUC bait protein was analyzed by the yeast two-hybrid system described in Example 1. Specifically, the binding activity was evaluated based on the growth of yeast transformed with the vector on 2 kinds of yeast minimum media, i.e., (1) SD/-Leu, -Trp, -His media and (2) SD/-Leu, -Trp, -Ade media.

Test [3] deals with T1, human MERMUC bait-2 protein (C-terminal …). Kind of test: yeast two-hybrid screen of a human kidney cDNA library. As for the experimental part:
Specifically, yeast two hybrid system (Proc. Natl. Acad. Sci. USA., 1991, Vol.88, p.9578-9582) was performed to screen a human kidney cDNA library using cDNA corresponding to the C-terminal region of the human MERMUC as the bait (that is, fishing bait).
On the other hand, each cDNA of the human kidney derived cDNA library (CLONTECH) that is used for the screening with the bait vector is inserted in pADK vector (tryptophan biosynthesis gene as a marker). Therefore, proteins produced through the expression of each of these cDNAs in yeast are produced as a fusion protein ([fusion protein B]) with the GAL4 transcriptional activation region (GAL4-AD).

Test [4] deals with MERMUC bait protein C260 (amino acids 244-503 of SEQ ID NO: 10) fused to GAL4-DB (yeast; human, UniProt P04386 1-147). Put plainly: yeast two-hybrid. The method, then:
as §1, §2

Test [5] has as its target MERMUC bait protein C53 (amino acids 451-503 of SEQ ID NO: 10) fused to GAL4-DB (yeast; human, UniProt P04386 1-147). Kind of test: yeast two-hybrid. The method, then:
as §1, §2

B1: MERMUC bait protein C260ΔC53 (amino acids 244-450 of SEQ ID NO: 10) fused to GAL4-DB (other, not shown: small tags and cut ends)
chain: VKASSTSDPPALPDSTEAKPHITEVTASAETLSTAGTTESAAPHATVGTPLPTNSATEREVTAPGATTLSGALVTVSRNPLEETSALSVETPSYVKVSGAAPVSIEAGSAVGKTTSFAGSSASSYSPSEAALKNFTPSETPTMDIATKGPFPTSRDPLPSVPPTTTNSSRGTNSTLAKITTSAKTTMKPPTATPTTARTRPTTDVSA
notes: also called C260A53; C260AC53
Consider B1, for which the binding result in test [1] is recorded as “no binding”.

B2: c-Met prey protein C (amino acids 1023-1083 of SEQ ID NO: 4) fused to GAL4-AD (other, not shown: large carriers)
chain: FSELVSRISAIFSTFIGEHYVHVNATYVNVKCVAPYPSLLSSEDNADDEVDTRPASFWETS
notes: also called prey DNA C
In the case of B2, the binding result in test [2] is recorded as “no binding”.

B3: prey clone No. 3-312: C-terminal 89 amino acids of the human c-Met β chain fused to GAL4-AD (other, not shown: large carriers)
chain: LLQPEYCPDPLYEVMLKCWHPKAEMRPSFSELVSRISAIFSTFIGEHYVHVNATYVNVKCVAPYPSLLSSEDNADDEVDTRPASFWETS
For B3, in test [3], the binding result is given as “binds”.

B4: c-Met prey protein A (amino acids 1003-1083 of SEQ ID NO: 4) fused to GAL4-AD (other, not shown: large carriers)
chain: DPLYEVMLKCWHPKAEMRPSFSELVSRISAIFSTFIGEHYVHVNATYVNVKCVAPYPSLLSSEDNADDEVDTRPASFWETS
notes: also called prey DNA A
B4: the binding result in test [2] is reported as “binds”.

B5: c-Met prey protein B (amino acids 1013-1083 of SEQ ID NO: 4) fused to GAL4-AD (other, not shown: large carriers)
chain: WHPKAEMRPSFSELVSRISAIFSTFIGEHYVHVNATYVNVKCVAPYPSLLSSEDNADDEVDTRPASFWETS
notes: also called prey DNA B
Consider B5, for which, in test [2], the binding result was “binds”.

B6: c-Met prey protein G (amino acids 993-1043 of SEQ ID NO: 4) fused to GAL4-AD (other, not shown: large carriers)
chain: RRLLQPEYCPDPLYEVMLKCWHPKAEMRPSFSELVSRISAIFSTFIGEHYV
notes: also called prey DNA G
Turning to B6, the binding result in test [2] is “no binding”.

B7: prey clone No. 2-211: C-terminal 56 amino acids of human MERMUC fused to GAL4-AD (other, not shown: large carriers)
chain: VSAGENGGFLLLRLSVASPEDLTDPRVAERLMQQLHRELHAHAPHFQVSLLRVRRG
Regarding B7, the binding result in test [3] is “binds”.

B8: prey clone No. 2-22: C-terminal 93 amino acids of human MERMUC fused to GAL4-AD (other, not shown: large carriers)
chain: SSRGTNSTLAKITTSAKTTMKPPTATPTTARTRPTTDVSAGENGGFLLLRLSVASPEDLTDPRVAERLMQQLHRELHAHAPHFQVSLLRVRRG
Take B8: the binding result in test [3] is given as “binds”.

Regarding B9, the binding result in test [4], in test [5] and in test [3] was “binds” throughout.
